The target of this experiment is T1, paLptD, LptD from Pseudomonas aeruginosa (as the chain in paLptDEHis) (Pseudomonas aeruginosa, UniProt Q9I5U2 34-924).
T1 sequence: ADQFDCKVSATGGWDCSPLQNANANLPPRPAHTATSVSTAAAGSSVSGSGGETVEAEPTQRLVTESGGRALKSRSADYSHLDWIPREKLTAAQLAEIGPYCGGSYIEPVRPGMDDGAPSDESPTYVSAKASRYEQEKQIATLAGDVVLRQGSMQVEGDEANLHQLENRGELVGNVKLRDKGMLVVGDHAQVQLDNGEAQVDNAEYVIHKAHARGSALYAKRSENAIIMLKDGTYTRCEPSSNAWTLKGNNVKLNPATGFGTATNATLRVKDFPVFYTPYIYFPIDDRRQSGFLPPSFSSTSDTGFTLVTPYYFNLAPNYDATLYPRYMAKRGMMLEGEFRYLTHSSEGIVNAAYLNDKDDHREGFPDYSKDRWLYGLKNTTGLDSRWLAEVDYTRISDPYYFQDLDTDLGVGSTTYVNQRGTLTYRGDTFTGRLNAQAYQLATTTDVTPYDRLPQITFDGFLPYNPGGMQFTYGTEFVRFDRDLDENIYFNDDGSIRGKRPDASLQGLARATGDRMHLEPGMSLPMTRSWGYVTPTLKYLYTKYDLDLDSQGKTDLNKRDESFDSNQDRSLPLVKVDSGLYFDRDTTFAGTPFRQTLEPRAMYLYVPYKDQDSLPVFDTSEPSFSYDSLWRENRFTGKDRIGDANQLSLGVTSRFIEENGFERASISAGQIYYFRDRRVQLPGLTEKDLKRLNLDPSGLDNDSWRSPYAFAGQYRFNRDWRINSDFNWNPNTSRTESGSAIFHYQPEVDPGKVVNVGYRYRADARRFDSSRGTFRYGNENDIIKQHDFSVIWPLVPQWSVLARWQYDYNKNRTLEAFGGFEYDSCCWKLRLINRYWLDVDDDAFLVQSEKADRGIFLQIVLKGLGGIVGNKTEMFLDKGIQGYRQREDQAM
Briefly: crystal structure.

No end group written: not given here.

With CGLKGPLYFPPADKNAPPPTKPVETQTQSTVPDKNDRATGDGPSQVNY (natural protein, also: three acyl chains (R1, R2, R3) at the N-terminus) [LptM (formerly YifL), endogenous Escherichia coli lipoprotein], the binding result is “binds”.

The record behind these values is PMC12065857 (Nature Communications, 2025).
